Reference: patent publication US20230151085A1 (TRINOMAB BIOTECH, published 2023)

What was measured:
[1] = biological target: T1, human nerve growth factor (hNGF) (human, UniProt P01138 122-241); test: cell-based or functional assay
[2] = biological target: T1, human nerve growth factor (hNGF); test: ELISA, hNGF coated at 2 ug/mL, antibody titrated from 10 ug/mL, goat anti-human IgG-HRP
Description: Antibody TRN1027 was tested for binding activity to hNGF by the ELISA assay. Specifically, 2 μg/mL of hNGF as an antigen was diluted and coated with carbonate buffer at pH 9.6 in a 96-well plate overnight at 4° C.; the plate was blocked by the blocking solution at 37° C. for 2 h. The antibody TRN1027 was serial diluted with the blocking solution, starting at 10 μg/mL, 3-fold dilution for 12 gradients; each gradient of antibody TRN1027 was then added to a 96-well plate and incubated for 1 h at 37° C. The plate was washed with the PBST buffer, added with 100 μ/well LHRP labeled goat anti-human IgG (1: 10000), and incubate at 37° C. for 1 h. The plate was washed with the PBST buffer, added with 100 μL/well TMB developing solution away from light, and placed for 5 min at 37° C. H₂SO₄ was added to stop the reaction. The detection was conducted at 450 nm wavelength. The results were calculated and analyzed.

[3] = biological target: T1, human nerve growth factor (hNGF); test: SPR (BIACORE3000), antibody captured by anti-human IgG (Fc) on CM5 chip, hNGF as analyte
From the text: The binding force between an antibody and an antigenic determinant, called antibody affinity, reflects the ability of the antibody molecule to bind to the antigenic determinant. In this example, the antigen binding affinity of antibody TRN1027 was detected using surface plasmon resonance analysis (BIACORE3000). Anti-human IgG (Fc) antibody was immobilized on the surface of CM5 sensor chip (GE) by amino-coupling method. The anti-NGF antibody was captured as a ligand, the capture level reached about 400 RU. Different concentrations of hNGF protein were passed through the detection channel as the analyte streams. The binding of antigen to antibody and dissociation of the bound complex was monitored in real-time. Kinetic analysis (calculation of dissociation constants (KD)) was performed with the Biacore X100 Evaluation Software (2.0.1).

[4] = biological target: T2, human brain-derived neurotrophic factor (hBDNF) (human, UniProt P23560 129-247); test: ELISA, neurotrophin coated on plate, goat anti-human IgG-HRP detection
T2 construct: Bought protein (Absin)
T2 sequence (looked up): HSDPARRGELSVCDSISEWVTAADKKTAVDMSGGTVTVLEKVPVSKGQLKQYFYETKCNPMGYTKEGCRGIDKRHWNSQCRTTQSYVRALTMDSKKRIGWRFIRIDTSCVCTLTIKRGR
Description: (§1) The present invention determines the cross-reactivity of antibody TRN1027 to other neurotrophins by ELISA. HBDNF, hNT-3 and hNT-4 (Absin) were used as antigens to coat the 96-well plate at […] overnight at 4° C., respectively. Then the plate was blocked with the blocking solution for 2 hours at ambient temperature. The plate was added with antibody TRN1027 with decreasing concentrations (ranging from 10 ug/ml-0 ug/ml) at 100 ul/well and incubated at 37° C. for 1 h. Antibody TRN1027 was detected by TMB with goat-anti-human IgG-HRP (1: 10000) and the substrate developer. OD values were measured at dual wavelengths of 450-630 nm.

[5] = biological target: T3, human neurotrophin-4 (hNT-4) (human, UniProt P34130 81-210); test: as above
T3 construct: Bought protein (Absin)
T3 sequence (looked up): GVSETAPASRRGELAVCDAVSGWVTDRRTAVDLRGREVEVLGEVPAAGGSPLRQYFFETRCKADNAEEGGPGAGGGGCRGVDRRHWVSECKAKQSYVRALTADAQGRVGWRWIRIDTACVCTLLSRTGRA
Description: as §1

[6] = biological target: T4, human neurotrophin-3 (hNT-3) (human, UniProt P20783 139-257); test: as above
T4 construct: Bought protein (Absin)
T4 sequence (looked up): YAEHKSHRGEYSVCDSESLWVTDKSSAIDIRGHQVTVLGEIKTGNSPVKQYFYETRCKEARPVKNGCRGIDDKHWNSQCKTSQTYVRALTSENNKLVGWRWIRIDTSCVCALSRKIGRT
Description: as §1

T1 sequence (P01138 122-241 limits assumed): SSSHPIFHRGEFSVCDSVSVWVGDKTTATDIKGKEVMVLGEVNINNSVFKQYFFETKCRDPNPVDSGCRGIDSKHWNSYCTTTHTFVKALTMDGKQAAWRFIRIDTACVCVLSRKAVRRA

B1: anti-NGF antibody Tanezumab (CAS No. 880266-57-9, published in CN 102746399 B, also known as E3) (antibody, V domains shown)
VH: QVQLQESGPGLVKPSETLSLTCTVSGFSLIGYDLNWIRQPPGKGLEWIGIIWGDGTTDYNSAVKSRVTISKDTSKNQFSLKLSSVTAADTAVYYCARGGYWYATSYYFDYWGQGTLVTVSS
VL: DIQMTQSPSSLSASVGDRVTITCRASQSISNNLNWYQQKPGKAPKLLIYYTSRFHSGVPSRFSGSGSGTDFTFTISSLQPEDIATYYCQQEHTLPYTFGQGTKLEIKR
With B1 the “EC50 of inhibition of NGF-induced proliferation of TF-1 cells (MTS)” value [1] was 14.3 ng/mL, the “EC50 of neutralisation of NGF on PC-12 cells (Celltiter-Glo cell viability)” value [1] was 32.2 ng/mL and the EC50 [2] was 2.96 ng/mL.

B2: human anti-NGF antibody TRN1027 (antibody, V domains shown)
VH: QLQLQESGSGLVRPSQTLSLTCAVSGDSMNSGGYSWSWIRQPPGKGLEWIGYIYYSGSTHYNPSLESRVTLSLHRSKNQFFLQLSSVTAADTAVYYCARTLWFGEFEGFDPWGQGILVTVSS
VL: QSALTQPPSASGSPGQSVTISCTGTSSDVGGYNFVSWYQHHPGKAPKLLLYEVSKRPSGVPDRFSGSKSGNTASLTVSGLQAEDEADYFCSSFAGSNNFVFFGGGTKLTVL
With B2 the “EC50 of inhibition of NGF-induced proliferation of TF-1 cells (MTS)” value [1] was 3.01 ng/mL, the “EC50 of neutralisation of NGF on PC-12 cells (Celltiter-Glo cell viability)” value [1] was 8.83 ng/mL and the EC50 [2] was 1.07 ng/mL. For the same binder, the Kd [3] was 0.0168 nM, the binding result [4] was “no binding (tested: 10 ug/ml-0 ug/ml)” and the binding result [5] was “no binding (tested: 10 ug/ml-0 ug/ml)”. B2: no binding (tested: 10 ug/ml-0 ug/ml) [6].
